One may read the Kd as the free concentration of one partner at which half of the binding sites on the other are occupied at equilibrium, for simple one-to-one binding. Low readings indicate higher affinity, high ones lower affinity. As usually defined, the koff is the first-order rate constant of dissociation. A lower koff goes with slow dissociation. As a reminder, the kon is the rate constant with which the complex forms. Read a high kon as faster complex formation.

The values below come from patent US20240294593A1.

Experiment [1] concerns the target human PD-1-His (human) (UniProt Q15116). In words: Octet tandem epitope binning: PD-1-His on HIS1K biosensor, first dip XENP21461 (row), second dip 1C11-based mAb; normalized to HBS-EP first dip. Background: BLI is a label-free optical method that tracks binding on a fibre tip over time.
For experiment [2] the target is unchanged. Kind of experiment: Octet tandem epitope binning: PD-1-His on HIS1K biosensor, first dip HBS-EP buffer (row; the reference of the normalization), second dip 1C11-based mAb.
For experiment [3] the target is unchanged. In words: Octet tandem epitope binning: PD-1-His on HIS1K biosensor, first dip chmAb B (row), second dip 1C11-based mAb; normalized to HBS-EP first dip.
Experiment [4] shares this target. In words: Octet tandem epitope binning: PD-1-His on HIS1K biosensor, first dip XENP16432 (row), second dip 1C11-based mAb; normalized to HBS-EP first dip.
Experiment [5] shares this target. Kind of experiment: Octet tandem epitope binning: PD-1-His on HIS1K biosensor, first dip chmAb A (row), second dip 1C11-based mAb; normalized to HBS-EP first dip.
For experiment [6] the target is unchanged. Kind of experiment: Octet tandem epitope binning: PD-1-His on HIS1K biosensor, first dip 1C11-based mAb (row), second dip 1C11-based mAb; normalized to HBS-EP first dip.
Experiment [7] has the same target. Kind of experiment: Octet tandem epitope binning: PD-1-His on HIS1K biosensor, first dip PDL1-Fc (row), second dip 1C11-based mAb; normalized to HBS-EP first dip.
Experiment [8] has the same target. In words: Octet.
Experiment [9] shares this target. Kind of experiment: Octet; in the context of PD-1-targeted IL-15/Rα-Fc fusion; reference mAb C H1L1.

human PD-1-His (human), sequence (Q15116 25-167 limits assumed): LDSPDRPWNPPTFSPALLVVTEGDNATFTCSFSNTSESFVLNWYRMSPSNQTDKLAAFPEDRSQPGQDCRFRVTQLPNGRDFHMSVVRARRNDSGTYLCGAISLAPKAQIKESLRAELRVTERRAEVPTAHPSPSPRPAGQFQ

B1: 1C11-based mAb (antibody, from another filing, V domains shown)
VH: QIQLVQSGPELKKPGETVKISCRASGYTFTHYGMNWVKQAPGKGLKWMGWINTYTGEPTYADDFKGRFAFSLETSASTAYLQINNLKNEDTATYFCARDYYGSSPYWGQGTTLTVSS
VL: DVLMTQTPLSLPVSLGDQASISCRSSQSIVHSNGNTYLEWYLQKPGQSPKLLIYKVSNRFSGVPDRFSGSGSGTDFTLKISRVEAEDLGVYYCFQGSHVPNTFGGGTKLEIKR
As to B1, the normalized BLI-response in the experiment with human PD-1-His (human) [1] was found to be 0.405; with human PD-1-His (human) [2] it was 1; in the experiment with human PD-1-His (human) [3], 0.253; with human PD-1-His (human) [4] it was 0.29; with human PD-1-His (human) [5] it was 0.966; with human PD-1-His (human) [6] it was 0.0987. This molecule registered a normalized BLI-response with human PD-1-His (human) [7] of 0.621.

B2: mAb C H1.19_L1.1 (in the context of PD-1-targeted IL-15/Rα-Fc fusion) (Fc fusion, part only; not given: IL-15/Rα-Fc chain, constant regions, not shown: another chain or arm of the molecule; a dimerising Fc or GST; small tags and cut ends)
VH: EVQLVESGGGLVQPGGSLRLSCAASGFTFSSLGMHWVRQAPGKGLEWVSYISSGSSIIYYADSVKGRFTISRDNAKNSLYLQMNSLRAEDTAVYYCARGGRLVWSPDYWGQGTLVTVSS
VL: DIVMTQSPDSLAVSLGERATINCKSSQSLLHSGNQKNYLTWYQQKPGQPPKLLIYWASTRESGVPDRFTGSGSGTDFTLTISSLQAEDVAVYYCQNDYSYPFTFGSGTKLEIK
In the experiment with human PD-1-His (human) [8], B2 displayed a Kd of 2.29 nM, a koff of 0.00017 s⁻¹ and a kon of 74400 M⁻¹ s⁻¹.

B3: mAb C H1.175_L1.140 (in the context of PD-1-targeted IL-15/Rα-Fc fusion) (Fc fusion, part only; not given: IL-15/Rα-Fc chain, constant regions, not shown: another chain or arm of the molecule; a dimerising Fc or GST)
VH: EVQLVESGGGLVQPGGSLRLSCAASGFTFSSLGMHWVRQAPGKGLEWVSYISGGSSIIYYADSVKGRFTISRDNAKNSLYLQMNSLRAEDTAVYYCARGGWLVWSPDYWGQGTLVTVSS
VL: DIVMTQSPDSLAVSLGERATINCKSSQSLLHSGNQYNYLTWYQQKPGQPPKLLIYWASTRESGVPDRFTGSGSGTDFTLTISSLQAEDVAVYYCQNDYTYPFTFGSGTKLEIK
In the experiment with human PD-1-His (human) [8], B3 had a Kd of 0.624 nM, a koff of 7.88e-05 s⁻¹ and a kon of 126000 M⁻¹ s⁻¹. In the experiment with human PD-1-His (human) [9], this molecule displayed a fold improvement in KD over wild-type of 100 fold.

B4: mAb C H1.132_L1.140 (in the context of PD-1-targeted IL-15/Rα-Fc fusion) (Fc fusion, part only; not given: IL-15/Rα-Fc chain, constant regions, not shown: another chain or arm of the molecule; a dimerising Fc or GST)
VH: EVQLVESGGGLVQPGGSLRLSCAASGFTFSSFGMHWVRQAPGKGLEWVSYISSGSSIIYYADSVKGRFTISRDNAKNSLYLQMNSLRAEDTAVYYCARGGWLVWSPDYWGQGTLVTVSS
VL: DIVMTQSPDSLAVSLGERATINCKSSQSLLHSGNQYNYLTWYQQKPGQPPKLLIYWASTRESGVPDRFTGSGSGTDFTLTISSLQAEDVAVYYCQNDYTYPFTFGSGTKLEIK
In the experiment with human PD-1-His (human) [8], B4 registered an equilibrium dissociation constant (Kd) of 0.543 nM, a koff of 7.88e-05 s⁻¹ and a kon of 145000 M⁻¹ s⁻¹. Besides, the fold improvement in KD over wild-type in the experiment with human PD-1-His (human) [9] came to 100 fold.

B5: mAb C H1_L1.140 (in the context of PD-1-targeted IL-15/Rα-Fc fusion) (Fc fusion, part only; not given: IL-15/Rα-Fc chain, constant regions, not shown: another chain or arm of the molecule; a dimerising Fc or GST; small tags and cut ends)
VH: EVQLVESGGGLVQPGGSLRLSCAASGFTFSSFGMHWVRQAPGKGLEWVSYISSGSSIIYYADSVKGRFTISRDNAKNSLYLQMNSLRAEDTAVYYCARGGRLVWSPDYWGQGTLVTVSS
VL: DIVMTQSPDSLAVSLGERATINCKSSQSLLHSGNQYNYLTWYQQKPGQPPKLLIYWASTRESGVPDRFTGSGSGTDFTLTISSLQAEDVAVYYCQNDYTYPFTFGSGTKLEIK
In the experiment with human PD-1-His (human) [8], B5 showed a Kd of 1.62 nM, a koff of 0.000122 s⁻¹ and a kon of 74800 M⁻¹ s⁻¹. The molecule further returned a fold improvement in KD over wild-type with human PD-1-His (human) [9] of 36 fold.
